1 molecule from US20240247069A1 (published 2024) can be followed below.

Common to all, as to test: Biacore
(In general: SPR reads the build-up and loss of mass on a sensor chip optically.)

For assay [1], the target named is T1, Mouse FGFR3b.mmh (REGN3215) (UniProt Q61851 21-801).
T1 chain: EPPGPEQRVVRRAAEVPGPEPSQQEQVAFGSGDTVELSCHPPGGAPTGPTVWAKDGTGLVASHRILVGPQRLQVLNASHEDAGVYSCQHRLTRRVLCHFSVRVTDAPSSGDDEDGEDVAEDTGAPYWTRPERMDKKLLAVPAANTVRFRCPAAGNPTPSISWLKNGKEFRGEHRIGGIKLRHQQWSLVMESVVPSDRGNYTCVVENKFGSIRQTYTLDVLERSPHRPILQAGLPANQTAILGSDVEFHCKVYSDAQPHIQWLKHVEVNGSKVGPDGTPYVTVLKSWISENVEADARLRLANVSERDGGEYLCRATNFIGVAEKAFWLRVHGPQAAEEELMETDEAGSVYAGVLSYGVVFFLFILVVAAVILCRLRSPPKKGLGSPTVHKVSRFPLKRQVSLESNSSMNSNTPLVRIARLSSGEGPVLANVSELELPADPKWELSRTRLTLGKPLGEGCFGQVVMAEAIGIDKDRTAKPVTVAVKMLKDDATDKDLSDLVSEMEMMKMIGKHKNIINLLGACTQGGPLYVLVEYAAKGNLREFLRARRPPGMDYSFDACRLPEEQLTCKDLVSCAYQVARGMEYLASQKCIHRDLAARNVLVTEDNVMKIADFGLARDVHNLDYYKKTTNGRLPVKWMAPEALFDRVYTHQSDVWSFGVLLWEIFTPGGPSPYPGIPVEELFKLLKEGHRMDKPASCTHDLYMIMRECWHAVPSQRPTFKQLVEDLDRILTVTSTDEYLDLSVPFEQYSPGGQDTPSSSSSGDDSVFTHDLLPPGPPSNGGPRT

Assay [2] concerns the target T2, Human FGFR3b.mmh (REGN3152) (UniProt P22607 23-806).
T2 chain: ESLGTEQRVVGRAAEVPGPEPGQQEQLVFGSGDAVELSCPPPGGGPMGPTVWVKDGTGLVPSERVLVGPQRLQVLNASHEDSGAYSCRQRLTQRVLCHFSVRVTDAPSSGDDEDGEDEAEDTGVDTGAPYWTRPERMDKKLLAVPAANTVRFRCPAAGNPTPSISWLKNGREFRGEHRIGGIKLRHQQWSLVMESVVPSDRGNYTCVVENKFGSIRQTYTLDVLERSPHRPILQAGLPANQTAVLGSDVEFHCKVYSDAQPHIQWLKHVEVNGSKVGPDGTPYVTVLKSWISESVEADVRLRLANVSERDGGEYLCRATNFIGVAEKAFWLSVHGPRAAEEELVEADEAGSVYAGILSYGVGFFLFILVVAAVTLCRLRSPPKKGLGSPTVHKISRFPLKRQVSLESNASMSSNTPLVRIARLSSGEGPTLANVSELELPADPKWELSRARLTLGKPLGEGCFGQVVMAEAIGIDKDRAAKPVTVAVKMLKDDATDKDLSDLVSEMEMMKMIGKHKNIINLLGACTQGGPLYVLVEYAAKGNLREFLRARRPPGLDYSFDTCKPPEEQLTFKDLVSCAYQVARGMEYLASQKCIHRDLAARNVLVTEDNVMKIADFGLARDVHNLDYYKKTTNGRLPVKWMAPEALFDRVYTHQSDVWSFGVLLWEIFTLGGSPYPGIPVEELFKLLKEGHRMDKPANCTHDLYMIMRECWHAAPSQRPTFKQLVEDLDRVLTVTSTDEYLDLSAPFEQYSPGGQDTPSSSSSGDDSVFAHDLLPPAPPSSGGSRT

Assay [3] deals with T3, Mouse FGFR3b (UniProt Q61851 21-801).
T3 chain: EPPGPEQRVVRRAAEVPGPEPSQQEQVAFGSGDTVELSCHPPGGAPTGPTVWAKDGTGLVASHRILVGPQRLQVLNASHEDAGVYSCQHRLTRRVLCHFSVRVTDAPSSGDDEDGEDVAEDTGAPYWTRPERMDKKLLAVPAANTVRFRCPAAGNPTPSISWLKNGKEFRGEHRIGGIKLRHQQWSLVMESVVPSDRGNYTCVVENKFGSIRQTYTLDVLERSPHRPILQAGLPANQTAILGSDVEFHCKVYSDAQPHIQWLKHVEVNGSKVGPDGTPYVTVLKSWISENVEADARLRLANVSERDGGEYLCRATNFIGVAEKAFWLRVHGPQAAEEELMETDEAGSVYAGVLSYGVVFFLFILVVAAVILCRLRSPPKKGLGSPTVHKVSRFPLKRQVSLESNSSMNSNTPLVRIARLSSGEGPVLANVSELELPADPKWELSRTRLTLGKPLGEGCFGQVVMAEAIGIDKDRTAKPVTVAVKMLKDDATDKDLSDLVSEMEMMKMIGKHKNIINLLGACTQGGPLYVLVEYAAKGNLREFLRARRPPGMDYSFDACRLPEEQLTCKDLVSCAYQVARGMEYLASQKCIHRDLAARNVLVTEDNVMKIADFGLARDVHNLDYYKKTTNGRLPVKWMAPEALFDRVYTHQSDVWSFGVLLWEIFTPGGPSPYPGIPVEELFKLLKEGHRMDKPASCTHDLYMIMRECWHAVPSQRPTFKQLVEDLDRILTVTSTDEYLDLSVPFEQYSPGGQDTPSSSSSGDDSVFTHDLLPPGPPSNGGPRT

For assay [4], the target named is T4, Human FGFR3b (UniProt P22607 23-806).
T4 chain: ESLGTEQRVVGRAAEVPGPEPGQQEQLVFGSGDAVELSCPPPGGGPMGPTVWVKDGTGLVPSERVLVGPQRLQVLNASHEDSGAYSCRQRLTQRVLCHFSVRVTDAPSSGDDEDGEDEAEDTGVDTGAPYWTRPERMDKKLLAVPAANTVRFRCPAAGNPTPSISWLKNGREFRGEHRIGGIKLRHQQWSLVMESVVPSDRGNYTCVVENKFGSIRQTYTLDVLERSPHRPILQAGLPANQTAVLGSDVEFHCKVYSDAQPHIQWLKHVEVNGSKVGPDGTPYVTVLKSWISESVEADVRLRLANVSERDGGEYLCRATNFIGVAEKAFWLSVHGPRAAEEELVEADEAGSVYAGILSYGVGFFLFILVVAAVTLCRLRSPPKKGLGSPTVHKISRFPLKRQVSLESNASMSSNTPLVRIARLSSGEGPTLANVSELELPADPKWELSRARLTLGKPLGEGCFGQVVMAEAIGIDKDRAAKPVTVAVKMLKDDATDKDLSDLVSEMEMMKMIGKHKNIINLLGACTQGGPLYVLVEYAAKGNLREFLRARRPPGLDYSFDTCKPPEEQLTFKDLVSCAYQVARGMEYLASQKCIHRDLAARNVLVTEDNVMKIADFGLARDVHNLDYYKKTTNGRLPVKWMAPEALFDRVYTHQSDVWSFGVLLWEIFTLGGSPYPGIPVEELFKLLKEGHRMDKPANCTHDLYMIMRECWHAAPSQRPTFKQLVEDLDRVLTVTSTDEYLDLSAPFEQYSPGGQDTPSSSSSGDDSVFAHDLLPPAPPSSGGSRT

B1: mAb063 (antibody, V domains shown)
VH: QVQLQESGPGLVKPSETLSLTCTVSGDSINSYFWSWIRQLPGKELEWIGHIYSSGSTRYNPSLQSRVTISIDTSKNQFSLKLSSVTAADTAVYYCARGASAVDYWGQGTLVTVSS
VL: EIVLTQSPGTLSLSPGERATLSCRTSQSISSGYLAWYQQKPGQAPRLLIYGASRRATGIPDRFSGSGSGTDFTLTISRLEPEDFVVYYCQQYGSSPYTFGQGTKLEIKR
For B1, the Kd (as a rule, the equilibrium constant for the complex coming apart) was 1.4 nM in assay [1], 2.59 nM in assay [2], 1.4 nM in assay [3] and 2.59 nM in assay [4].
